Results reported in article PMC11564011 (Heliyon, 2024).

Assays:
PD-L1 on CHO-PD-L1 cells [1] = target: T1, PD-L1 on CHO-PD-L1 cells (human, UniProt Q9NZQ7); assay: flow cytometry on cells
PD-L1 on CHO-PD-L1 cells [2] = target: T1, PD-L1 on CHO-PD-L1 cells; assay: flow cytometry on cells; remark: listed apart in the source
[3] = target: T2, PD-L1 on CD47+/PD-L1+ tumor cells (RKO, ES-2, HT-1080, HCC827) (human (endogenous in RKO, ES-2, …, UniProt Q9NZQ7)); assay: flow cytometry on cells
[4] = target: mFc-tag CD47 antigen (human) (UniProt Q08722); assay: BLI
[5] = target: mFc-tag CD47 antigen (human) (UniProt Q08722); assay: ELISA
[6] = target: T2, PD-L1 on CD47+/PD-L1+ tumor cells (RKO, …); assay: flow cytometry on cells; remark: listed apart in the source
His-tag PD-L1 antigen [7] = target: T3, His-tag PD-L1 antigen (Homo sapiens, UniProt Q9NZQ7); assay: ELISA
His-tag PD-L1 antigen [8] = target: T3, His-tag PD-L1 antigen; assay: BLI

T1 sequence (Q9NZQ7 19-290): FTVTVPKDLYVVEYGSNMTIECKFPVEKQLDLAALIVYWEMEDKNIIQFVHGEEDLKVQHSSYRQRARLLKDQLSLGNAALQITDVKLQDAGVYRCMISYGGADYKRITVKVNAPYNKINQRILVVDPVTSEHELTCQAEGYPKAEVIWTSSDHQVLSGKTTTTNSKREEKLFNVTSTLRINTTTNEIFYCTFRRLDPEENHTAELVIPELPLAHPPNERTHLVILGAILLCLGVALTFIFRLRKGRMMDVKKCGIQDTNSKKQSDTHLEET
T2 sequence (Q9NZQ7 19-290): as above
T3 sequence (Q9NZQ7 19-238): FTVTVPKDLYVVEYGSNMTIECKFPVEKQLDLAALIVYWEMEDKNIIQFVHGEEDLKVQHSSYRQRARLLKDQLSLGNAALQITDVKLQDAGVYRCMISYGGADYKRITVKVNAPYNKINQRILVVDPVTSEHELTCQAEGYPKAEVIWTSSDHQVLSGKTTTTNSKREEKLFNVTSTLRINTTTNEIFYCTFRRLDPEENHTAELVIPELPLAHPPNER
Chain of mFc-tag CD47 antigen (human) (Q08722 19-323): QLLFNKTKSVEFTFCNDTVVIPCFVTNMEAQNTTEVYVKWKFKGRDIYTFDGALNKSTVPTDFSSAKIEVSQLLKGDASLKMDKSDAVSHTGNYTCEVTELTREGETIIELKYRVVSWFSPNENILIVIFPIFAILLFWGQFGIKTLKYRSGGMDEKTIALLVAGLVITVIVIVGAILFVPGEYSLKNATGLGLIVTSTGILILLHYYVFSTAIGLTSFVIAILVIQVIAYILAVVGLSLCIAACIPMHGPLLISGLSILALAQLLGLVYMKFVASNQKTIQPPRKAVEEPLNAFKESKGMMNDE

B1: IMM2520 (bispecific antibody, V domains shown)
VH: QVQLVQSGAEVKKPGASVKVSCKASGYTFTSNWMHWVRQAPGQGLEWMGMIHPNSGSSNYNEKFKSRVTMTRDTSTSTVYMELSSLRSEDTAVYYCARSYYGSSPYYFDYWGQGTLVTVSS
VL: DIQMTQSPSSLSASVGDRVTITCRASQDIINYLNWYQQKPGKAPKLLIYYTSRLHSGVPSRFSGSGSGTDFTFTISSLQPEDIATYYCQQGDTLPWTFGQGTKVEIK
IC50 (PD-L1 on CHO-PD-L1 cells [1]): 0.121 nM | EC50 (PD-L1 on CHO-PD-L1 cells [2]): 0.845 nM | EC50 [3]: 0.145 nM | Kd [4]: 2.49 nM | EC50 [5]: 0.079 nM | IC50 [6]: 0.0123 nM | EC50 (His-tag PD-L1 antigen [7]): 0.456 nM | Kd (His-tag PD-L1 antigen [8]): 0.576 nM
